According to paper PMC10979099 (The Journal of Biological Chemistry, 2024):

Target: Sra1 (human, UniProt Q7L576 1-1253)
Experiment: reconstitution and co-purification

Sequence of Sra1 (Q7L576 whole entry): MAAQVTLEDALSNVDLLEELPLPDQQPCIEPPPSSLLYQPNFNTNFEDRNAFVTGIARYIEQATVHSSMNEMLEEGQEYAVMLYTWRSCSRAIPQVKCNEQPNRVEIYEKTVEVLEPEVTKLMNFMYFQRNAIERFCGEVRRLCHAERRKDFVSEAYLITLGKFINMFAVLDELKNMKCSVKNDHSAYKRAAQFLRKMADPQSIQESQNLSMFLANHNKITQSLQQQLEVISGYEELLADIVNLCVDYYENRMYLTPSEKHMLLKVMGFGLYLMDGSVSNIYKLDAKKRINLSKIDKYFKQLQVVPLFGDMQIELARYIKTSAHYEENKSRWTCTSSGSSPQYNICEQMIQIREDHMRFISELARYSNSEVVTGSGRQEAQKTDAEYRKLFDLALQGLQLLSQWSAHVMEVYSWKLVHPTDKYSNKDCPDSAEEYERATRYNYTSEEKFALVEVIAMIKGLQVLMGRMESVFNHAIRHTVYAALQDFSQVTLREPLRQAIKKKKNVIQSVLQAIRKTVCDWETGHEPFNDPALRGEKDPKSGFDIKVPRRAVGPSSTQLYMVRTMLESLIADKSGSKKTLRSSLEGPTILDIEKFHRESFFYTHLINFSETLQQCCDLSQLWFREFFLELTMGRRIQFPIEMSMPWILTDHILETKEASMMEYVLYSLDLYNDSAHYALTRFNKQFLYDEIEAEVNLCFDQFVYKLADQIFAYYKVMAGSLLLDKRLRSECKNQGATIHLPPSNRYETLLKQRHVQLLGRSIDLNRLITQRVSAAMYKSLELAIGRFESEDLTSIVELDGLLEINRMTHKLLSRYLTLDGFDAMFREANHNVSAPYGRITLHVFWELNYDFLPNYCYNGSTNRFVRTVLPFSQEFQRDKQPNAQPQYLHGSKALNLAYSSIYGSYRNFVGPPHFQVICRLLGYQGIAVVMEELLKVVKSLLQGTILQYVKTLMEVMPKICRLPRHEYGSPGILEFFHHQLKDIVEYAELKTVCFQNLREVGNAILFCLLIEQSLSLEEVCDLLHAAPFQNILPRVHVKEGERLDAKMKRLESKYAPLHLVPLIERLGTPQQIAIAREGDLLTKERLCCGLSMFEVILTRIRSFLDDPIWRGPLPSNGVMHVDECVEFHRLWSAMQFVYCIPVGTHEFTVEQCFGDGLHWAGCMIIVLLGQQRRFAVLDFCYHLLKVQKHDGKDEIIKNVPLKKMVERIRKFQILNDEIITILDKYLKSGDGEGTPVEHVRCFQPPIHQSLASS

B1: Nap1 (natural protein)
chain: MSRSVLQPSQQKLAEKLTILNDRGVGMLTRLYNIKKACGDPKAKPSYLIDKNLESAVKFIVRKFPAVETRNNNQQLAQLQKEKSEILKNLALYYFTFVDVMEFKDHVCELLNTIDVCQVFFDITVNFDLTKNYLDLIITYTTLMILLSRIEERKAIIGLYNYAHEMTHGASDREYPRLGQMIVDYENPLKKMMEEFVPHSKSLSDALISLQMVYPRRNLSADQWRNAQLLSLISAPSTMLNPAQSDTMPCEYLSLDAMEKWIIFGFILCHGILNTDATALNLWKLALQSSSCLSLFRDEVFHIHKAAEDLFVNIRGYNKRINDIRECKEAAVSHAGSMHRERRKFLRSALKELATVLSDQPGLLGPKALFVFMALSFARDEIIWLLRHADNMPKKSADDFIDKHIAELIFYMEELRAHVRKYGPVMQRYYVQYLSGFDAVVLNELVQNLSVCPEDESIIMSSFVNTMTSLSVKQVEDGEVFDFRGMRLDWFRLQAYTSVSKASLGLADHRELGKMMNTIIFHTKMVDSLVEMLVETSDLSIFCFYSRAFEKMFQQCLELPSQSRYSIAFPLLCTHFMSCTHELCPEERHHIGDRSLSLCNMFLDEMAKQARNLITDICTEQCTLSDQLLPKHCAKTISQAVNKKSKKQTGKKGEPEREKPGVESMRKNRLVVTNLDKLHTALSELCFSINYVPNMVVWEHTFTPREYLTSHLEIRFTKSIVGMTMYNQATQEIAKPSELLTSVRAYMTVLQSIENYVQIDITRVFNNVLLQQTQHLDSHGEPTITSLYTNWYLETLLRQVSNGHIAYFPAMKAFVNLPTENELTFNAEEYSDISEMRSLSELLGPYGMKFLSESLMWHISSQVAELKKLVVENVDVLTQMRTSFDKPDQMAALFKRLSSVDSVLKRMTIIGVILSFRSLAQEALRDVLSYHIPFLVSSIEDFKDHIPRETDMKVAMNVYELSSAAGLPCEIDPALVVALSSQKSENISPEEEYKIACLLMVFVAVSLPTLASNVMSQYSPAIEGHCNNIHCLAKAINQIAAALFTIHKGSIEDRLKEFLALASSSLLKIGQETDKTTTRNRESVYLLLDMIVQESPFLTMDLLESCFPYVLLRNAYHAVYKQSVTSSA
binding result: binds
